Assay results as given in patent US20170226172A1 (NEW YORK UNIVERSITY, published 2017).
Like-named read-outs stand apart in the source and are kept apart here. Values belong to the binder of their own block, whether it stands above or below them.

Assays:
[1] = molecular target: T1, alpha-Klotho with endogenous FGFRs on HEK293-alphaKlotho cells; assay: FACS competition on HEK293-alphaKlotho cells: peptide 0.01 to about 1000 nM against 0.2 ug/mL full-length human FGF23, geo mean of PE intensity
[2] = molecular target: T1, alpha-Klotho with endogenous FGFRs on …; assay: as above; remark: listed apart in the source
[3] = molecular target: T1, alpha-Klotho with endogenous FGFRs on …; assay: FACS competition on HEK293-alphaKlotho cells against a sub-saturating dose of FGF23
Description: IC50 values were derived from the resulting inhibition binding curves (FIG. 7).

[4] = molecular target: T2, FGFR4/alpha-klotho on BaF3 cells (Example 12) (Homo sapiens (Human), UniProt P22455 22-802; Q9UEF7 34-1012); assay: FACS competitive binding on BaF3 cells expressing FGFR4 and Klotho, against 0.2 ug/mL FGF-23; drug 0 to 2430 nM; the number stands beside the legend entry under the title 'FACS CO… BINDING IC50', the unit is that of the axis (nM DRUG)
T2 construct: also called BaF3 cells expressing FGFR4 and αklotho; BaF3-FGFR4/αklotho cells

[5] = molecular target: T1, alpha-Klotho with endogenous FGFRs on …; assay: cell-based or functional assay
[6] = molecular target: T3, FGFR1c/alpha-klotho on BaF3 cells (Example 12) (Homo sapiens (Human), UniProt P11362 22-822; Q9UEF7 34-1012); assay: FACS competitive binding on BaF3 cells expressing FGFR1c and Klotho, against 0.2 ug/mL FGF-23; drug 0 to 2430 nM; the number stands beside the legend entry under the title 'FACS CO… BINDING IC50', the unit is that of the axis (nM DRUG)
T3 construct: also called BaF3 cells expressing FGFR1c and αklotho; BAF3 lines engineered to express FGFR1c/αklotho

[7] = molecular target: T1, alpha-Klotho with endogenous FGFRs on …; assay: FACS competition on HEK293-alphaKlotho cells: peptide 0.01 to about 1000 nM against 0.2 ug/mL full-length human FGF23, geo mean of PE intensity; remark: listed apart in the source
[8] = molecular target: FGFR1c and alpha-klotho, murine, on BAF3 cells (Example 7) (mouse, UniProt P16092 22-822; O35082 35-1014); assay: cell-based or functional assay
[9] = molecular target: T4, FGFR1c/alpha-klotho receptor complex, murine, pre-formed (SPR analyte) (mouse, UniProt P16092 22-376; O35082 35-982); assay: SPR competition; full-length murine FGF23 on the Biacore chip, set amount of pre-formed receptor complex with increasing c-tail construct
T4 construct: also called pre-formed receptor complex (mouse)
T4 sequence (looked up) 1: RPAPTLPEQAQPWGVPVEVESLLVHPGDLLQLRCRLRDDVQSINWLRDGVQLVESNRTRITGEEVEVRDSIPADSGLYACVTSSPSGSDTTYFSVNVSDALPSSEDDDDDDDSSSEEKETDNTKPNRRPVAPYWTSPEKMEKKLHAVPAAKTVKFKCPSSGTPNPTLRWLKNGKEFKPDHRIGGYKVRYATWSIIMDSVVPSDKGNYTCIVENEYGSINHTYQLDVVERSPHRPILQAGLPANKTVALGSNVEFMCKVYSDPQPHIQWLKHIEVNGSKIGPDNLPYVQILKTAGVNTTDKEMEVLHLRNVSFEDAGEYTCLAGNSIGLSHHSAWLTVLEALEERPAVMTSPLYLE
T4 sequence (looked up) 2: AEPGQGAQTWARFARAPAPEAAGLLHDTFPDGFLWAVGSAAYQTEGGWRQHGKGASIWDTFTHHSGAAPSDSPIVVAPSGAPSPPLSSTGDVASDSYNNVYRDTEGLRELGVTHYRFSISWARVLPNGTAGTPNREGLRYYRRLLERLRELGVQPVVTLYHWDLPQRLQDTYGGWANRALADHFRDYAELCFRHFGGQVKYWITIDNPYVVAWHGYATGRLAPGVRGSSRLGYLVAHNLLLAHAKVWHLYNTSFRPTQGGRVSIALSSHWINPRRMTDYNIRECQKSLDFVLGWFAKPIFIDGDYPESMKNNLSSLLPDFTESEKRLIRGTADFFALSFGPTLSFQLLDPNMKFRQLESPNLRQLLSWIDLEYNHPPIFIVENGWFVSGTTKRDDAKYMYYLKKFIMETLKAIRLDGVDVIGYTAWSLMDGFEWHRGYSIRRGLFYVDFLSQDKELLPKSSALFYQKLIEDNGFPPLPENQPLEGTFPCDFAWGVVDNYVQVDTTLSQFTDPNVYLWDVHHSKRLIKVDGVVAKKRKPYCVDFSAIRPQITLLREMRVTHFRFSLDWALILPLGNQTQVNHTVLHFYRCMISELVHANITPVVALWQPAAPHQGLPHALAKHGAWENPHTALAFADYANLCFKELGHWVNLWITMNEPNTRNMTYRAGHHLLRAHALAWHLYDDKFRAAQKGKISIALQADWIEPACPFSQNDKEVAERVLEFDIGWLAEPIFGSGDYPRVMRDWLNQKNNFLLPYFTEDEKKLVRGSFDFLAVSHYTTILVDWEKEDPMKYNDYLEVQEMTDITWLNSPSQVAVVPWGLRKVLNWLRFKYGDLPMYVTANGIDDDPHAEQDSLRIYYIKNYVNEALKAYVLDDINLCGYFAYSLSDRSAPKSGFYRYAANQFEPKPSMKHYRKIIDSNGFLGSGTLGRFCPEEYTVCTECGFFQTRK
Description: The potency of the human and murine constructs were determined via both competitive inhibition using SPR and cellular viability assays (Cell Titer Glo). […] Experiments were done in a species specific manner meaning that all components were from a single species, either mouse or human. For the functional experiments, BAF3 cells were engineered to stably express FGFR1c and α-klotho. BAF3 cells are dependent on IL-3 for growth. […] Once again this was done in a species specific manner.

[10] = molecular target: FGFR1c and alpha-klotho, human, on BAF3 cells (Example 7) (human, UniProt P11362 22-822; Q9UEF7 34-1012); assay: cell-based or functional assay

IC50 [1]: 2.4 nM
B1: Human FGF23 c-tail 70 (-2 amino acid construct) peptide (peptide)
peptide: SAEDDSERDPLNVLKPRARMTPAPASCSQELPSAEDNSPMASDPLGVVRGGRVNTHAGGTGPEGCRPFAK
notes: also called truncated FGF23 c-tail peptide, 70 amino acids

IC50 [2]: 2.8 nM
B2: Human FGF23 c-tail 69 (-3 amino acid construct) peptide (peptide)
peptide: SAEDDSERDPLNVLKPRARMTPAPASCSQELPSAEDNSPMASDPLGVVRGGRVNTHAGGTGPEGCRPFA
notes: also called truncated FGF23 c-tail peptide, 69 amino acids

IC50 (read off the curve) [3]: ~20 nM
IC50 [4]: 23 nM
IC50, inhibition of FGF23 signaling (Egr1-luciferase) in HEK293 cells expressing alpha-klotho (prior to assay optimization) [5]: 81.9 nM
IC50 [6]: 15.4 nM
IC50 [7]: 2.9 nM
B3: Wild Type Human FGF23 c-tail 180-251 (72 amino acid peptide) (peptide)
peptide: SAEDDSERDPLNVLKPRARMTPAPASCSQELPSAEDNSPMASDPLGVVRGGRVNTHAGGTGPEGCRPFAKFI
notes: also called FGF23 c-tail peptide; unconjugated FGF23 c-tail peptide

Ki [9]: 10 nM
B4: Wild Type Murine FGF23 c-tail Fc (muFGF23-c-tail-FC1), mature (Fc fusion)
chain: VPRDAGCKPCICTVPPVSSVFIFPPKPKDVLTITLTPKVTCVVVDISKDDPEVQFSWFVDDVEVHTAQTQPREEQFNSTFRSVSELPIMHQDWLNGKAFACAVNSAAFPAPIEKTISKTKGRPKAPQVYTIPPPKEQMAKDKVSLTCMITDFFPEDITVEWQWNGQPAENYKNTQPIMDTDGSYFVYSKLNVQKSNWEAGNTFTCSVLHEGLHNHHTEKSLSHSPGGGGGSSAEDPPERDPLNVLKPRPRATPVPVSCSRELPSAEEGGPAASDPLGVLRRGRGDARGGAGGADRCRPFPRFV
notes: also called Murine FGF23-Fc; surrogate molecule
IC50, cellular viability (Cell Titer Glo) of BAF3 cells expressing FGFR1c and alpha-klotho kept alive by FGF23 [8]: 35 nM

IC50 (read off the curve) [3]: ~10 nM
IC50, inhibition of FGF23-mediated Egr1-luciferase activity in HEK293 cells expressing alpha-klotho (after assay optimization) [5]: 21.5 nM
IC50, inhibition of FGF23-mediated Egr1-luciferase activity in HEK293 cells expressing alpha-klotho (prior to assay optimization) [5]: 202 nM
IC50 [6]: 20.4 nM
B5: Human Wild Type FGF23 c-tail Fc (FGF23-c-tail-FC1), mature (Fc fusion)
chain: EPKSCDKTHTCPPCPAPEAAGAPSVFLFPPKPKDTLMISRTPEVTCVVVDVSHEDPEVKFNWYVDGVEVHNAKTKPREEQYNSTYRVVSVLTVLHQDWLNGKEYKCKVSNKALPAPIEKTISKAKGQPREPQVYTLPPSREEMTKNQVSLTCLVKGFYPSDIAVEWESNGQPENNYKTTPPVLDSDGSFFLYSKLTVDKSRWQQGNVFSCSVMHEALHNHYTQKSLSLSPGGGGGSSAEDDSERDPLNVLKPRARMTPAPASCSQELPSAEDNSPMASDPLGVVRGGRVNTHAGGTGPEGCRPFAKFI
notes: Made in CHO cells; also called HuFGF23 c-tail Fc; huFGF23-Fc
IC50, cellular viability (Cell Titer Glo) of BAF3 cells expressing FGFR1c and alpha-klotho kept alive by FGF23 [10]: 53 nM
